Laboratory results as given in paper PMC4006906 (PLoS Pathogens, 2014).

Target: H5VN04 trimeric HA (recombinant hemagglutinin) (Influenza A virus A/Vietnam/1203/2004 …, strain)
Assay: SPR
Conditions: both partners purified

B1: CR6261 scFv (wild type) (scFv, V domains shown)
VH: EVQLVESGAEVKKPGSSVKVSCKASGGPFRSYAISWVRQAPGQGPEWMGGIIPIFGTTKYAPKFQGRVTITADDFAGTVYMELSSLRSEDTAMYYCAKHMGYQVRETMDVWGKGTTVTVSS
VL: QSVLTQPPSVSAAPGQKVTISCSGSSSNIGNDYVSWYQQLPGTAPKLLIYDNNKRPSGIPDRFSGSKSGTSATLGITGLQTGDEANYYCATWDRRPTAYVVFGGGTKLTVL
B1: binds.
